In article PMC4686854 (2015):
One block for each binder: values may come before it.

How the values were obtained:
[1] = target: T1, mouse SAD-A KD-UBA fragment (kinase domain and UBA domain) (mouse); test: trans-inhibition of KD-UBA kinase activity, non-competitive fit (a = 0.15)
T1 chain: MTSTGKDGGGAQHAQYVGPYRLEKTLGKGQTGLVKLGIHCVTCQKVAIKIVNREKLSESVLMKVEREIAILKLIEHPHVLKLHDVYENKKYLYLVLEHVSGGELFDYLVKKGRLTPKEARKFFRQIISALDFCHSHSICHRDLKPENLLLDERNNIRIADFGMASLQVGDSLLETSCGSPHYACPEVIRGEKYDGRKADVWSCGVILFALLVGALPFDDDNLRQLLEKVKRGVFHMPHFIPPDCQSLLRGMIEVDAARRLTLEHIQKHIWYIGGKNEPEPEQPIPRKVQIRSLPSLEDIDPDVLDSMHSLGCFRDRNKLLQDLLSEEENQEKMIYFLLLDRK

[2] = target: T2, mouse SAD-A KD-UBA fragment (kinase domain and UBA domain) (mouse)
T2 sequence (Q69Z98 whole entry, looked up): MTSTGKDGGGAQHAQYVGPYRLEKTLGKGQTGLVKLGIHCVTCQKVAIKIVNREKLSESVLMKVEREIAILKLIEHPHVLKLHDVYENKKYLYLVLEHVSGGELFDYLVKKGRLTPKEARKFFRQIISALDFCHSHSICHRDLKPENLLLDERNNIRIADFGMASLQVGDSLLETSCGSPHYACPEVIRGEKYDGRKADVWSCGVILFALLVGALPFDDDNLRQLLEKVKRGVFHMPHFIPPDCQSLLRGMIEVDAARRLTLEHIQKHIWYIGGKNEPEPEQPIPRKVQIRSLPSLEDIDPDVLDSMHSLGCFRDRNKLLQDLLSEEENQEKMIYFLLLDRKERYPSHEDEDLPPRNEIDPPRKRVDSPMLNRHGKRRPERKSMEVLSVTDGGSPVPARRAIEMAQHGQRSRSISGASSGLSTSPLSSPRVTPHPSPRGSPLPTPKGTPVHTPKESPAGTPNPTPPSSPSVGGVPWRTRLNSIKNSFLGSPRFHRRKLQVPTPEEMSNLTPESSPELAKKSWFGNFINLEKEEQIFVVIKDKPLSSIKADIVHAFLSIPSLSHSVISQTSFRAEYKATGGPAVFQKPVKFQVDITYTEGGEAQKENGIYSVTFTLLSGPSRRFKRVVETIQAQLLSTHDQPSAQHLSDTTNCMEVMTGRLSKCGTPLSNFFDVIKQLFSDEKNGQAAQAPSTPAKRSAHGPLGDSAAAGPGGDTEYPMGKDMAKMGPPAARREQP

[3] = target: T1, mouse SAD-A KD-UBA fragment (kinase …); test: apparent Ki from trans-inhibition of KD-UBA kinase activity; residual activity a=0.19
[4] = target: T1, mouse SAD-A KD-UBA fragment (kinase …); test: apparent Ki from trans-inhibition of KD-UBA kinase activity; residual activity a=0.34
[5] = target: T1, mouse SAD-A KD-UBA fragment (kinase …); test: apparent Ki from trans-inhibition of KD-UBA kinase activity; fragment 506-653; residual activity a=0.14
[6] = target: T1, mouse SAD-A KD-UBA fragment (kinase …); test: trans-inhibition of KD-UBA kinase activity, non-competitive fit (a = 0.19)

B2: AIS-containing peptide of mouse SAD-A (residues 506-530) (peptide)
peptide: MSNLTPESSPELAKKSWFGNFINLE
Ki [3]: 15.1 µM

B3: AIS peptide of mouse SAD-A (residues 519-530) (peptide)
peptide: KKSWFGNFINLE
Ki [4]: 24.8 µM

Results, then the binder that gave them:

Ki [1]: 7.58 µM | trans-inhibition of the kinase activity of KD-UBA (10 nM) towards Cdc25C peptide; residual activity at the plateau [2]: 15%
B1: chimeric protein: mouse SAD-A residues 506-530 fused to a C-terminal thioredoxin-tag (domain or fragment)
chain: MSNLTPESSPELAKKSWFGNFINLE

trans-inhibition of the kinase activity of KD-UBA (10 nM) towards Cdc25C peptide; residual activity at the plateau [2]: 15% | Ki [5]: 5.82 µM
B4: mouse SAD-A C-terminal fragment containing the sequence N terminal to KA1 (506-530) (domain or fragment)
chain: MSNLTPESSPELAKKSWFGNFINLEKEEQIFVVIKDKPLSSIKADIVHAFLSIPSLSHSVISQTSFRAEYKATGGPAVFQKPVKFQVDITYTEGGEAQKENGIYSVTFTLLSGPSRRFKRVVETIQAQLLSTHDQPSAQHLSGIIPKS
modifications: No chemistry outside the sequence. Built as residues 506-653 of the 653-residue isoform: the N-terminal limit 506 comes from the printed 506-530 segment, and the C-terminal limit 653 is inferred from the protein end, as in the 519-653 and 530-653 fragments. In 4YOM entity 2, position 2 = K519, 14 = K531 and 136 = S653; the initiator Met and the LEHHHHHH tag are left out.

Ki [6]: 5.85 µM
B5: mouse SAD-A AIS-KA1 fragment (residues 519-653) (domain or fragment)
chain: KKSWFGNFINLEKEEQIFVVIKDKPLSSIKADIVHAFLSIPSLSHSVISQTSFRAEYKATGGPAVFQKPVKFQVDITYTEGGEAQKENGIYSVTFTLLSGPSRRFKRVVETIQAQLLSTHDQPSAQHLSGIIPKS
